Values quoted from earlier work in publication PMC5133818.

Target: cytochrome c (Homo sapiens) (UniProt P99999)
Test: SPR

Chain of UniProt P99999 (P99999 2-105): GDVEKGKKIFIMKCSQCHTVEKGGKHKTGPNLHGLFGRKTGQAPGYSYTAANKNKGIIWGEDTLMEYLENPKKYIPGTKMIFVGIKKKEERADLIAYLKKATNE

Kd: 200 µM
Substance: neuroglobin (from UniProt Q9NPG2)
